Results from patent US7060795 (KIMBERLY CLARK WORLDWIDE, dated 2006).

Key:
[1] = biological target: T1, matrix metalloproteinase-9 (MMP-9) (UniProt P14780 107-707, limits assumed); assay: SPR (BiaCore-X, CM-5 chip); KA = ka/kd
[2] = biological target: T1, matrix metalloproteinase-9 (MMP-9); assay: SPR (BiaCore-X, CM-5 chip); MMP-9 coupled to the chip, SEQ ID NO:5 polypeptide in PBS flowed over
[3] = biological target: T2, matrix metalloproteinase-1 (MMP-1) (UniProt P03956 100-469, limits assumed); assay: fluoresceinated collagen hydrolysis assay, Dixon plot, competitive inhibition assumed; target MMP-1
T2 sequence (looked up): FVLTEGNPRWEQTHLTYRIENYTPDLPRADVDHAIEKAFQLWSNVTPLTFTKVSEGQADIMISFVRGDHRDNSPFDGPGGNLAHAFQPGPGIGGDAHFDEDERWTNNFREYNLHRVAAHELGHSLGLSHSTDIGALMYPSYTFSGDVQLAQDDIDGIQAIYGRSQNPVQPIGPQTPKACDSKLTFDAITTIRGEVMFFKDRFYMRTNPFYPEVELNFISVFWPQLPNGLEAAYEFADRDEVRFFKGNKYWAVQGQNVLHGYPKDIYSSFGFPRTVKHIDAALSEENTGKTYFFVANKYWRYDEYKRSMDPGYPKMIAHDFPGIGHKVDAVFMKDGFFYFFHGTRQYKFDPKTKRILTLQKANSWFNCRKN
Description: (§1) Inhibition of MMPs: The assay employed measured the enzymatic hydrolysis of fluoresceinated collagen by MMP-9 or other matrix metalloproteinases as a function of time. Fluoresceinated collagen at a concentration of 5 μM was added to reaction buffer (50 mM Tris-HCl (pH 7.6), 150 mM NaCl, 5 mM CaCl_2, 0.1 mM NaN_3) and was placed into a Spectrosil quartz fluorimeter cuvette. MMP at a concentration of 0.1 μM was mixed with varying amounts of polypeptide inhibitor (SEQ ID NO:5 or SEQ ID NO:20) and incubated at 25° C. for 10 minutes in order to effect binding. The protein mixture was added to the collagen substrate, and mixed. Fluorescence emission intensity at 520 nm was measured as a function of time using an excitation wavelength of 495 nm in a Shimadzu RF5301 fluorimeter. The fluorescein release assay was used to determine the inhibitory constant (K_i) of the protein based matrix metalloproteinase inhibitor ([I]) according to Segel (1993) by using Dixon plots (1/v vs. [I]), where: […]

[4] = biological target: T1, matrix metalloproteinase-9 (MMP-9); assay: fluoresceinated collagen hydrolysis assay, Dixon plot, competitive inhibition assumed; target MMP-9
Description: as §1

T1 sequence (P14780 107-707 limits assumed): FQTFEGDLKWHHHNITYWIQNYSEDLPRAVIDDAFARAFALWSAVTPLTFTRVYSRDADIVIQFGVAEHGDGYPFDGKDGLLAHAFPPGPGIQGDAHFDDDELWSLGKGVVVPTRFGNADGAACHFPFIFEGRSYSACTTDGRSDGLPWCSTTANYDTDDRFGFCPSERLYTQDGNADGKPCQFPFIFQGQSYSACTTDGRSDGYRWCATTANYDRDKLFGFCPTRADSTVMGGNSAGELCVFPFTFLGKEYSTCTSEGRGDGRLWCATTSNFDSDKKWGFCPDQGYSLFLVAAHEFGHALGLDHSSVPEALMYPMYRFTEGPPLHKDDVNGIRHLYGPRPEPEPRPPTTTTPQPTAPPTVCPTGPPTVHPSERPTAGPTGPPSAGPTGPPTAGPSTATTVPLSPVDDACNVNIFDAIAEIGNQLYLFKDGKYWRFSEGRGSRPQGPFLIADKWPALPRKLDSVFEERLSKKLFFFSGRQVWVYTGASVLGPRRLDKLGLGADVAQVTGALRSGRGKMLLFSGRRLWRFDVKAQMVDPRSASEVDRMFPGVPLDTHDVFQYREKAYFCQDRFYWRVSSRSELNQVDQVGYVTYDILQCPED

B1: SEQ ID NO:5 polypeptide (DST; Delta Synthetic TIMP), purified Fraction IV protein (designed binder)
chain: CSCSPVHPQQAFSNADVVIRAKAVSEKEVDSGNDIYGNPIKRIQYEIKQIKMFKGPEKDIEFIYTAPSSAVCGVSLDVGGKKEYCIAGKAEGDGKMHITLCDFICPW
notes: It was expressed in E. coli as an MBP fusion and cleaved with Factor Xa; It is monomeric by gel filtration; Three disulfide bonds; also called DST protein
For B1, the Ka [1] was 1.5e+08 M⁻¹, the koff [2] was 0.0013 s⁻¹ and the kon [2] was 200000 M⁻¹ s⁻¹. It also gave a Ki [3] of 12 nM and a Ki [4] of 16 nM.
